Data taken from article PMC3974617 (Developmental cell, 2013).

Biological target: the molecule itself
Assay: negative-stain EM

B1: full-length recombinant human VPS41 (His-hVPS41) (natural protein, UniProt P49754 1-854, looked up)
chain: MAEAEEQETGSLEESTDESEEEESEEEPKLKYERLSNGVTEILQKDAASCMTVHDKFLALGTHYGKVYLLDVQGNITQKFDVSPVKINQISLDESGEHMGVCSEDGKVQVFGLYSGEEFHETFDCPIKIIAVHPHFVRSSCKQFVTGGKKLLLFERSWMNRWKSAVLHEGEGNIRSVKWRGHLIAWANNMGVKIFDIISKQRITNVPRDDISLRPDMYPCSLCWKDNVTLIIGWGTSVKVCSVKERHASEMRDLPSRYVEIVSQFETEFYISGLAPLCDQLVVLSYVKEISEKTEREYCARPRLDIIQPLSETCEEISSDALTVRGFQENECRDYHLEYSEGESLFYIVSPRDVVVAKERDQDDHIDWLLEKKKYEEALMAAEISQKNIKRHKILDIGLAYINHLVERGDYDIAARKCQKILGKNAALWEYEVYKFKEIGQLKAISPYLPRGDPVLKPLIYEMILHEFLESDYEGFATLIREWPGDLYNNSVIVQAVRDHLKKDSQNKTLLKTLAELYTYDKNYGNALEIYLTLRHKDVFQLIHKHNLFSSIKDKIVLLMDFDSEKAVDMLLDNEDKISIKKVVEELEDRPELQHVYLHKLFKRDHHKGQRYHEKQISLYAEYDRPNLLPFLRDSTHCPLEKALEICQQRNFVEETVYLLSRMGNSRSALKMIMEELHDVDKAIEFAKEQDDGELWEDLILYSIDKPPFITGLLNNIGTHVDPILLIHRIKEGMEIPNLRDSLVKILQDYNLQILLREGCKKILVADSLSLLKKMHRTQMKGVLVDEENICESCLSPILPSDAAKPFSVVVFHCRHMFHKECLPMPSMNSAAQFCNICSAKNRGPGSAILEMKK
stoichiometry N: 2
